For the series the following is noted: Escherichia coli (strain K12); pH 8; 25 °C; Urea; CD; Na-PIPES 50 mM; reversible: yes; whole UniProt chain shown.

B1: Chemotaxis protein CheY wild type, P0AE67 (protein)
chain: MADKELKFLVVDDFSTMRRIVRNLLKELGFNNVEEAEDGVDALNKLQAGGYGFVISDWNMPNMDGLELLKTIRADGAMSALPVLMVTAEAKKENIIAAAQAGASGYVVKPFTAATLEEKLNKIFEKLGM
B1: the denaturant m value was determined as 1.6 kcal/mol/M, the “denaturant midpoint (higher = more stable)” value was determined as 3.5 M and the unfolding free energy came to 5.6 kcal/mol.

Values taken from FireProtDB (doi:10.1002/prot.340220405).
